Data: US8828941 (KUNOVUS, dated 2014)

Biological target: the molecule itself
Test: non-reducing PAGE of protein from CHO cells
Text: Concentrated supernatants from one well of a 6-well plate were separated using polyaclylamide gel electrophoresis (PAGE) under […] conditions. Proteins were transferred to nitrocellulose membranes and detected with antisera specific for GDF-6 or for the FLAG tag, secondary antibodies and detection system.

B1: active domain of GDF-6 fused to a FLAG tag (SEQ ID NO: 25), expressed in CHO cells (ligand)
chain: MDYKDDDDKENLYFQGTAFASRHGKRHGKKSRLRCSKKPLHVNFKELGWDDWIIAPLEYEAYHCEGVCDFPLRSHLEPTNHAIIQTLMNSMDPGSTPPSCCVPTKLTPISILYIDAGNNVVYKQYEDMVVESCGCR
notes: Non-reducing PAGE indicates a homodimer; also called active fragment of GDF-6; active fragment
B1: binds.
